Test results as given in patent US20100261218A1.

T1: Synechocystis sp. PCC6803 fatty acid synthesis acyl carrier protein (SACP), P20804
T1 chain: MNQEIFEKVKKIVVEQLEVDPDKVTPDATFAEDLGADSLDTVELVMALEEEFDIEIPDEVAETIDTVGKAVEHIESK

B1: N. sp. heterocyst carrier protein synthase (NhcS), phosphopantetheinyl transferase from Nodularia spumigena NSOR10 (protein)
chain: MTALNHLWLPVPTNLTLLPNDVHIWRIHLDVPEAQQQNLLATLSGDELTRANRFHFQEHRQRFIAGRGILRSILGSYLGIEPQRVLFDYQERGKPILADSLAKSGLWFNLSHSQGLALCAVNYHNRIGIDLEYIRRMSDVEALAKRFFLPREYDVVRSLSDHQQQEIFFRYWTCKEAYLKATGEGLAQLEQVEVLLNPTEPAQLQTSESWSLFELRAAEDYFAAVVVEGSGCNLQCWQY
B2: Synechocystis sp. PCC6803 phosphopantetheinyl transferase (Sppt) (protein)
chain: MLPQPQIWLCPTDRPLIPGYQALLSSEEMARGERYQRPQDKQRFLTMRLALRILLARQLDCLPQQLQFTYGPQGKPELVDRERRSPWFNVAHSGNYGLIGLSTEGEIGVDLQIMLPKPHYLKLAKRFFAPQEVQQLESLEGEKRTKLFYQLWTAKEAFLKATGKGISGGLNQVIPDENLAKYQYLPDSGDTNHWRLSSQPLLADQGSNDNYWMAIAWCTNEVNQVESNYLPNIQPFQWPRNLDSLP

Assays:
[1] = molecular target: N. punctiforme ATCC29133 PKS aryl carrier protein (ArCP) from HetM of glycolipid synthesis (NpArCP)
[2] = molecular target: Nostoc punctiforme NRPS peptidyl carrier protein (Nppcp), C-terminal NosA PCP of the putative nostopeptolide cluster
[3] = molecular target: Bacillus brevis ATCC8185 NRPS peptidyl carrier protein involved in tyrocidine biosynthesis (TycPCP)
[4] = molecular target: N. punctiforme ATCC29133 PKS acyl carrier protein of nostopeptolide biosynthesis (NpACP)
[5] = molecular target: T1, Synechocystis sp. PCC6803 fatty acid …

Row | Protein | pantetheinylation of the carrier protein (30 min in vitro assay, ESI-MS) [1] | pantetheinylation of the carrier protein (30 min in vitro assay, ESI-MS) [2] | percent of carrier protein phosphopantetheinylated (30 min in vitro assay, ESI-MS) [3] | phosphopantetheinylation of the carrier protein (30 min in vitro assay, ESI-MS) [4] | phosphopantetheinylation of the carrier protein (30 min in vitro assay, ESI-MS) [1] | phosphopantetheinylation of the carrier protein (10 min in vitro assay, ESI-MS, +340 Da) [5]
1 | B1 | The conversion of the apo-ArCP (15.75 kDa) to the holo-ArCP (16.05 kDa) is seen | Nppcp was pantetheinylated | – | – | – | –
2 | B2 | – | – | approximately 54% of the P. aeruginosa PAO1 NRPS TycPCP was phosphopantetheinylated by Sppt | Phosphopantetheinylated NpACP was not reproducibly detected after incubation with Sppt | Sppt was unable to phosphopantetheinylate the N. punctiforme ATCC29133 NpArCP as shown by mass spectrometry | After in vitro incubation with Sppt, SACP showed an increased abundance of phosphopantetheinylated carrier protein
